Kd data for 1 molecule are collected here from patent US20100273979A1 (Affibody, published 2010).

The term Kd denotes the equilibrium constant for the complex coming apart. The low end stands for a tighter complex, the high end for a looser complex.

The assay addresses T1, rat serum albumin (rat, UniProt P02770 25-608).
T1 construct: Control coat in the screening ELISA; also called RSA
Kind of assay: method not stated (unpublished results); unpublished results; method and construct not stated.

T1 sequence (P02770 25-608 limits assumed): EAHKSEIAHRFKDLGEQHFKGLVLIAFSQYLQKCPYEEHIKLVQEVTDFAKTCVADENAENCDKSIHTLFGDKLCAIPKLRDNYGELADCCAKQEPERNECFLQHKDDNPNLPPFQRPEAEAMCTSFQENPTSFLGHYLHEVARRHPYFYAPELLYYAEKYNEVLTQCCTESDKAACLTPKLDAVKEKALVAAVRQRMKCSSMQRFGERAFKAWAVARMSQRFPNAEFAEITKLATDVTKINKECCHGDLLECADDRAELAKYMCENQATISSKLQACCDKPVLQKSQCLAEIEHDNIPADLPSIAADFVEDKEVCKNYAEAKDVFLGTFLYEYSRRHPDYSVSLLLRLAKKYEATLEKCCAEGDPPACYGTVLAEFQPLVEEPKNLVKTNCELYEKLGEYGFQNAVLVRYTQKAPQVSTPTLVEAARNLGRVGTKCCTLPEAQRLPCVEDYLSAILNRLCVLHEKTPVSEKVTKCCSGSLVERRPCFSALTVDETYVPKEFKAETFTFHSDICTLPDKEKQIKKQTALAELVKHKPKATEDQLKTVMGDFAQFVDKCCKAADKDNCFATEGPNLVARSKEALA

Regarding LAEAKVLANRELDKYGVSDYYKNLINNAKTVEGVKALIDEILAALP (other) [ABDwt (construct not stated; unpublished results)], the equilibrium dissociation constant (Kd) came out at 70 pM.
